Like-named read-outs stand apart in the source and are kept apart here.
B1: WAH-1 (residues 214 to 700), His-tagged (domain or fragment, C. elegans, UniProt Q9U229 214-700, looked up)
chain: SEQQSMKPSESTEENTTTTSADGLLHCEYVIIGSGTAAYYASLSIRAKQAEAKVLMIGEEPELPYNRPPLSKELWWYGDETSATKLAYTPLSGKKRDIFYEVDGFFVSPEDLPKAVHGGVALLRGRKAVKICEEDKKVILEDGTTIGYDKLLIATGVRPKKEQVFEEASEEAKQKITYFHYPADFKRVERGLADKSVQKVTIIGNGLLASELSYSIKRKYGENVEVHQVFEEKYPAEDILPEHIAQKSIEAIRKGGVDVRAEQKVEGVRKCCKNVVLKLSDGSELRTDLVVVATGEEPNSEIIEASGLKIDEKLGGVRADKCLKVGENVWAAGAIATFEDGVLGARRVSSWENAQISGRLAGENMATAAADGKSEGKAFWYQPSFFTKFAPHLHINAIGKCDSSLETVSVHAEPDKDTPLEKAVVFYKSKEDGSIVGVLLLNVFGPSLDVARRIIDDRKKVDEYKEIAKLFPLYDPVKSDEDDAKSA
B2: CPS-6(H148A) (residues 63-305), His-tagged (enzyme, C. elegans, UniProt Q95NM6 63-305, looked up)
chain: PSRSAEIMKHGYPGFTNVRTYEDFVLSYDYKTRTAHWVCEHLTPERLKHAEGVDRKLCEFKPDITFPQKFLSQNTDYKCSGFDRGALAAAGNHRKSQLAVDQTFYLSNMSPQVGRGFNRDKWNDLEMHCRRVAKKMINSYIITGPLYLPKLEGDGKKYIKYQVIGDNNVAVPTHFFKVALFEVTPGKFELESYILPNAVIEDTVEISKFHVPLDAVERSAGLEIFARLDPKSIVKENGAKKGG

Legend:
SEC [1] = target: the molecule itself; test: SEC
[2] = target: B2; test: other fluorescence titration
SEC [3] = target: the molecule itself; test: SEC; remark: listed apart in the source
[4] = target: B1; test: other fluorescence titration

| stoichiometry N [2] | Kd [4] [nM] | Binder | stoichiometry N (SEC [1]) | stoichiometry N (SEC [3]) |
| --- | --- | --- | --- | --- |
| 1 |  | B1 | 2 |  |
|  | 69.8 ± 2.8 | B2 |  | 2 |
|  |  | wild-type CPS-6 (residues 63-305), His-tagged (enzyme, C. elegans, UniProt Q95NM6 63-305, looked up) PSRSAEIMKHGYPGFTNVRTYEDFVLSYDYKTRTAHWVCEHLTPERLKHAEGVDRKLCEFKPDITFPQKFLSQNTDYKCSGFDRGHLAAAGNHRKSQLAVDQTFYLSNMSPQVGRGFNRDKWNDLEMHCRRVAKKMINSYIITGPLYLPKLEGDGKKYIKYQVIGDNNVAVPTHFFKVALFEVTPGKFELESYILPNAVIEDTVEISKFHVPLDAVERSAGLEIFARLDPKSIVKENGAKKGG |  | 2 |
